Values of other authors in article PMC11172262.

Molecular target: Claudin-1 (Homo sapiens) (UniProt O95832)

Kd: 0.047 µM
Substance: Claudin-1 ECL1 (from UniProt O95832)
